B1: 4-Met substituted E. coli Cir (colicin Ia receptor), the paper's wildtype (WT) Cir [E. coli] / Microcin V (MccV), mature, wildtype [modified: biotinylated (EZ-Link Sulfo-NHS-LC kit) for BLI and ELISA; not labelled for cryo-EM … (parent)
chain 1: VDDDGETMVVTASSVEQNLKDAPASISVITQEDLQRKPVQNLKDVLKEVPGVQLTNEGDNRKGVSIRGLDSSYTLILVDGKRVNSRNAVFRHNDFDLNWIPVDSIERIEVVRGPMSSLYGSDALGGVVNIITKKIGQKWSGTVTVDTTIQEHRDRGDTYNGQFFTSGPLIDGVLGMKAYGSLAKREKDDPQNSTTTDTGETPRIEGFSSRDGNVEFAWTPNQNHDFTAGYGFDRQDRDSDSLDKNRLERQNYSVSHNGRWDYGTSELKYYGEKVENKNPGNSSPITSESNTVDGKYTLPLTAINQFLTVGGEMRHDKMSDAVNLTGGTSSKTSASQYALFVEDEWRIFEPLALTTGVRMDDHETYGEHWSPRAYLVYNATDTVTVKGGWATAFKAPSLLQLSPDWTSNSCRGACKIVGSPDLKPETSESWELGLYYMGEEGWLEGVESSVTVFRNDVKDRISISRTSDVNAAPGYQNFVGFETGANGRRIPVFSYYNVNKARIQGVETELKIPFNDEWKLSINYTYNDGRDVSNGENKPLSDLPFHTANGTLDWKPLALEDWSMYMSGHYTGQKRADSATAKTPGGYTIWNTGAAWQVTKDVKLRAGVLNLGDKDLSRDDYSYNEDGRRYFMAVDYRF
chain 2: ASGRDIAMAIGTLSGQFVAGGIGAAAGGVAGGAIYDYASTHKPNPAMSPSGLGGTIKQKPEGIPSEAWNYAAGRLCNWSPNNLSDVCL

Variants of: B1
Experiment: BLI
Conditions: for Kd: 100 nM biotinylated MccV loaded onto streptavidin-coated sensors, probed with dilutions of Cir, PBS-T; for response: raw shift at end of association (600 s), 100 nM biotinylated MccV on sensor, not baseline-subtracted, read off a plot
[1] = with 4-Met substituted E. coli Cir (colicin Ia receptor)

| Variant | Kd (with Microcin V (MccV)) | response (with Microcin V (MccV), 5 µM Cir, PBST trace at about 1.5 nm) | Kd [1] | response (with 4-Met substituted E. coli Cir (colicin Ia receptor), 5 µM WT Cir, PBST trace at about 1.85 nm) | response (with 4-Met substituted E. coli Cir (colicin Ia receptor), 5 µM WT Cir, PBST trace at about 1.65 nm) |
| --- | --- | --- | --- | --- | --- |
| chain 1 C410A | 552 nM | 4.5 nm | – | – | – |
| chain 2 D85R | – | – | 692 nM | 3.2 nm | – |
| chain 2 D85A | – | – | 888 nM | – | 3.3 nm |
| chain 1 R411E R465E | 1580 nM | – | – | – | – |
